Results as given in the nanobody polyreactivity screen of Harvey et al. (2022).

Assay: yeast display, Sf9 membrane polyspecificity reagent, FACS + sequencing; frameworks hold sequencing errors
In short: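 Genes from sorted yeast were amplified by colony PCR, read by MiSeq 2 × 250 sequencing and filtered on CDR length. These cells carried a synthetic nanobody library in Saccharomyces cerevisiae BJ5465 and were sorted by FACS into low and high (top ~1%) gates on anti-HA and streptavidin fluorescence. Polyreactivity is labelled according to the gate of origin.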

Sequence | polyreactivity (PSR sort gate)
QVQLVESGGGLVQAGGSLRLSCAASGRIFYGYAMGWYRQAPGKERDLVAGISYRGARTYYADSVKGRFTISRDNAKNTVYLQMTSLKPEDTAVYYCNAVPYYPFAFGALDYWGQGTQVTVSS | high polyreactivity
QVQLVESGGGLVQAGGSLRLSCASSGFTSRYVMGWYRQAPGKEMELVASISRSGGSTYYADSVKGRFTISRDNAKNTVYLQMNSLKPEDTAVYYCAADATPTDMDYLGQGTQVTVSS | high polyreactivity
QVQLVESGGGLVQAGGSLRLSCADSGSIFYTYAMGWYRPAPGKERELVAAITRSGGSTNYADSVKGRFTITRDNAKYTVYLQMNSLKPEDNAVYYCAAVFNWAPYFYYYWGQRTQVTVSS | high polyreactivity
QVQLHESGGGLVHACGSLRPSCAASGSISDSWTMSWYRQAPGKEREFVAGITWGGTTNYADSVKRRFTISRDNAKNNVFLQMNSLKPEDTAVYYCAAVSYYGVDQYRITVYTYEYWGQGTQVTVSS | low polyreactivity
QVQLVESGGGLVQAGGSLRLSCAASGSTFGRNTMGWYRQAPGKERELVAAITSGDTTTYADSVKGRFTISRDNAKNTVYLQMNSLKPEDTAVYYCAVDPVRGRDYSWMDYWGQGTQVTVSS | low polyreactivity
QVQLVDSGGGLVQAGGSLRLSCAASGYIFSANAMGWYRQAPGKERELVAVISWNGDGTYYADSVKGRFTISRDNAKNTVYLQMNSLKAEDTAVYYCAALSYAYRSQSRRYGYRFDYWGQGTQVTVSS | high polyreactivity
QVQLVESGGGLVQAGRSLRLNCAASGSIIKYNAMGWYRPAPGKERELVASISSSGGTTYYADSVKGRFTISRDNAKNTVYLQMNRLTPEDTAVYYCTKYVRAGNGYGEEDYWGQGTQVTVSS | high polyreactivity
QVQLVESGGGLVQAGGSLRLSCAASGSTLPANAMGWYRQAPGKERELVAAITITTDGSTYYADSVKGRFTISRDNAKNTVYLQMNSLKAEDTAVYYCAVARYRYHIRKMGYWGQGTQVTVSS | low polyreactivity
QVQLVESGGGLVQAGGSLRLSCAASGSTFRAYAMGWYRQAPGKERELVAAISRSGGSTYYADSVKGRFTISRDNAKNTVYLQMNSLKPEDTAVYYCNAAYKNYQYRPPNIDGQGDYWGQGTQVTVSS | high polyreactivity
QVQLVESGGGLVQAGGSLRLSCAASGRIVCYYDMGWSRQAHGKERELVATITFGGGSTYYADSVKGRFTISRDNAKNTVYLQMNSLKPEDTAVYYCAADSGYLGIYGDEYSSGQGTQVTVSS | low polyreactivity
QVQLVESGGGLVQAGGSLRLSCAASGSTSLVYAMGWYRQAPGKERELVAAISWSGGSTYYADSVKGRFTISRDNAKNTVYLQMKSLKPEDTAVYYCAAEYYGYWEYDYWGQGTQVTVSS | high polyreactivity
QVQLVESGGGLVKAGGSLRLSCAASGFTLSRYTKGWYRQAPGKEWELVAAISWSGGSTYYADSVKGRFTISRDNAKNTVYLQMNSLKPEDSAVYYCAARYHYYGLYTSGDYYWGQGTQVTVSS | high polyreactivity
QVQLVESGGGLVQAGGSLRLSCAASGSIFGINGMGWYRQAPGKERELVAAISDSGGSTYYADSVKGRFTISRDNAKNTVYLQMNSLKPEDTAVYYCAAETYWYFAQFYDLYSYDYWGQGTQVTVSS | low polyreactivity
QVQLVKSGGGLVQAGGSLRLSCAASGRIFVGYVMGWYIQAPGKARELVAAIDSGRRTNYADSVKGRFTISRDNAKNTVYLQINSLKPEDTAVYYCNREAAHGSLRWTEMEYWGQGTQVTVSS | low polyreactivity
QVQLVESGGGLVQAGGSLRLSCAASGRIFSANAMGWYRQAPGKERELVAAITRGDNTYYADSVKGRFTISRDNAKNTVYLQMNSLKPEDTAVYYCATEGYQIQYEHDYWGQGTQLTVSS | low polyreactivity
QVQLVESGGGLDQAGGSLRLSCAASGITFKSNAMGWYRQAPGKESELVAAISRRASSTYYADSVKGRFTISRDNAKHTVYLQMNSLKPEDTAVYYCNAVLPVYRTNMDYWGQGTQVTVSS | high polyreactivity

Sequence | polyreactivity (PSR sort gate)
QVQLVESGGGLVQAGGSLRLSCAASGSTFASYAMGWYRQAPGKERELVAAIRWRGGTTYYADSVKGRFTISRDNAKNTVNLQMNSLKPEDTAVYYCNADRYYLYYFWGQGTQVTVSS | low polyreactivity
QVQLVESGGGLVQAGGSLRLSCAASGFTFSRYAMGWYRQAPGKERELVAAIRLRDGITYYADSVKGRFTISRDNAKNTVYLQMISLKPEDTAVYYCNAVNRTPVSQLDYWGQGTQVTVSS | high polyreactivity
QVQLVETGGGLVQAGGSLRLSCAASGSIFPSYAMGWYRPAPAKERELVAAISRSAGSTYYADSVKGRFTISRDNSKNTVYLQMNSLKPEDTAVYYCADDGYSSRYRYDYWGQGTQVTVSS | low polyreactivity
QVQLVESGGGLVQAGGSLRLSCAASGSIFWANAMGWYRQAPGKERELVASISSGGSTNYADSVKGRFTISRDNAKNTVYLQMNSLKPEDTAVYYCAADYSHSYIGYDYWGQGTQVTVSS | low polyreactivity
QVQLVESGGGLAQAGGSLRLSCAASGRTFRRYAMGWYRQAPGKEREMVAAITSGGDTYYADSVKGRFTISRDNAKNTVYLQMNSLKPEDTAVYYCNAASVTRRTGIRAVDFDYWGQGTQVTVSS | high polyreactivity
QFQLVESGGGLVQAGGSLPLSCAASGRTFGGNTMGRYREAPGKERELVAAISRRGGSTYYADSVKGRFTISRDNAKNTVYLQMNSLKPEDTAVYYCNKDGPSYSSYDYWGQGTQVTVSS | low polyreactivity
QVQLVESGGGLVQAGGSLRLSCAASGSIFVYNAMGWYRQAPGKEMELVAAISTSGGRTYYADSVKGRFTISRDNAKNTVYLQMNSLKTEDTAVYYCNALGYWRRVVDGFDYWGQGTQVTVSS | high polyreactivity
QVQLVESGGGLVQAGGSLRLSCAASGRIFYTNAMGWYRQAPGKERELVAAIDYSDSTTYYADSVKGRFTISRDNAKNTVYLQMNSLKPEDTAVYYCAAESYLYTVTFEYWGQGTQVTVSS | high polyreactivity
QVQLVESGGGLVQAGGRLRLSCAASGFIFAKYAMGWYRQAPGKERELVAAITSSGVSTYYADSVKGRFTISRDNAKNTVYLQMNSLKPADTAVYYCNARERYSYWGQGTQVTVSS | high polyreactivity
QVQLVESGGGLVQAGGSLRLSCAASGSIFLKYAMGWYRQAPGKERELVATISRGGSTNYADSVKGRFTISRDNAKNTVYLQMNSLKPEDTAVYYCAAKYGRPYGTYGYKSLLVGDMYYWGQGTQVTVSS | high polyreactivity
QVQLEESGGGLVQAGGSLRLSCAASGFTFNPYTMGWYRQAPGKERELVAAITSSGGSTYYADSVKGRFTISRDNAKNTVYLQMNSLKPEDTAVYYCAKLRTASIYDYWGQGTQVTVSS | low polyreactivity
QVQLVESGGGLVQAGGSLRLSCAAYGSIFLYNALGGYIQAPGKEMELVADITSAGRTYYADSVKGRFTISRDNAKNTVYLQMNSLKPEDTAVYYCNKDYQYHFSWYGYWGQGTQVTVSS | low polyreactivity
QVQLVESGGGLVQAGGSLRLSCAPSGSIFHYNAMGWYRQAPGKEREFVAVISKSSGSTFYADSVKGRFTISRDNAKNTVYLLMISLKPEDTAVYYCNRVTKRYPNIGNYWGQGTQVSVSS | high polyreactivity
QVQLVESGGGLVQAGGSLRIICAATGSIFYWNAMGWYRQSPGKEREFVASIRKSGGSTNYADSVKGRFTISRDNAKNTVYLQMTSQKPEDTAVYYCAAYSYYRGTFYDYWGQGTQVTVSS | low polyreactivity
QVQLVESGGGLVQAGGSLRLSCAASGFIYARYAMGSYRQAPGKERELLAAISWSGARTYYADSVKGRFTISRDNAKNTVYLQMNSLKAEDTAVYYCAARRLSYSYDYWGQGTQVSVSS | high polyreactivity
